Patent publication US20110217318A1 (MOCHIDA PHARMACEUTICAL, published 2011)

T1: human platelet membrane glycoprotein VI (GPVI) on human platelets (human, UniProt Q9HCN6 21-339)
T1 construct: whole, on cells
T1 sequence (looked up): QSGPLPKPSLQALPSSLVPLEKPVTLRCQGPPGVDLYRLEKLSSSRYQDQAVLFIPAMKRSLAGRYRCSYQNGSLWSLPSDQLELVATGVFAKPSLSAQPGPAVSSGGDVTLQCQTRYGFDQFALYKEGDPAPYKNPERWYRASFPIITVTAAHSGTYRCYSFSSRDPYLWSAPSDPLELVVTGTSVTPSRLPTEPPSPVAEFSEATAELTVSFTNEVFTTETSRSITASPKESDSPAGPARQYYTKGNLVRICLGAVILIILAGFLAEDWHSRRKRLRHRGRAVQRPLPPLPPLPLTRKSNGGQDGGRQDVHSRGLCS

T2: cynomolgus monkey GPVI on cynomolgus monkey platelets (cynomolgus monkey, UniProt A0A2K5VXN2 21-318)
T2 construct: whole, on cells; also called simian platelets
T2 sequence: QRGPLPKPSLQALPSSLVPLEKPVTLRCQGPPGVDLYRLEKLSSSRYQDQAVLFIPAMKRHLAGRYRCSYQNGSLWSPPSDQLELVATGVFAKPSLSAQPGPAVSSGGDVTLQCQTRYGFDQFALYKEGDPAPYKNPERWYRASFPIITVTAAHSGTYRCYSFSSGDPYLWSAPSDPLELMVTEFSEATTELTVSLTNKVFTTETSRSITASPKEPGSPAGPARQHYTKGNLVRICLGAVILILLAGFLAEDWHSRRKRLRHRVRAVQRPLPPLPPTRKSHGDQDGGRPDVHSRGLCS

B1: cF1232-37-2 (mouse/human chimeric F1232-37-2) (antibody, V domains shown)
VH: VQLQQSGPELVRPGESVKISCKGSGYTFTDYAIHWVKLSHAKSLEWIGVISIYYDDTNYNQKFKGKATMTVDKSSSTAYLELARLTSEDSAIYYCARRRDSSGPYAMDYWGQGTSVTVSS
VL: DIVLTQSPASLAVSLGQRATISCRASESVDSYGNSFMHWYQQKPGQPPKLLIYRASNLESGIPARFSGSGSRTDFTLTINPVEADDVATYYCQQSNEDPYTFGGGTKLEIKR
notes: V regions of F1232-37-2 on human IgG4 (Cgamma4) and human Ckappa constant regions; made in COS-1 (/COS) or CHO (/CHO); both preparations are kept under this one id; also called cF1232-37-2/COS; cF1232-37-2/CHO
B2: F1232-37-2 (antibody, V domains shown)
VH: B1 VH
VL: B1 VL
notes: mouse hybridoma monoclonal antibody; also called F1232-37-2 antibody; mouse monoclonal antibody F1232-37-2

What was measured:
[1] = target: T1, human platelet membrane glycoprotein VI …; assay: homologous competitive binding of 125I-labelled antibody on washed human platelets, n=3, mean±S.E.
Description: (§1) ACD-A (acid citrate-dextrose) was added to the PRPs prepared from citrated blood obtained from healthy human or cynomolgus monkey to adjust the pH to 6.5. The obtained PRPs were collected by centrifugation at 2,000 rpm. The pelleted platelets were washed with HEPES Buffer (pH was adjusted to 6.5 with ACD-A). An appropriate quantity of HEPES Buffer (pH 7.4) was added to prepare platelet suspension. The number of platelets were determined with SYSMEX® F-820 (Sysmex Co.), then the above-described platelet suspension was diluted with HEPES buffer (pH 7.4) to platelet count at 6×10⁵ cells/μL.
(§2) To the diluted washed platelets, the labeled and non-labeled antibodies were added at final concentrations of 3 nM and 0-1250 nM, respectively, and mixed to obtain platelet count at 3×10⁵ cells/μL. After incubating the mixture on the ice for one hour, the reactant was passed through 30% sucrose/HEPE buffer (pH 7.4) layered column and centrifuged at 12,000 g for 5 min in order to separate the platelets and non-bound antibodies. The radioactivity of each fraction was measured using automatic gamma counter 1470 WIZARD (PerkinElmer Japan). Data was analyzed using GraphPad Prism software (Graph Pad Software, Inc.).

[2] = target: T2, cynomolgus monkey GPVI on cynomolgus …; assay: homologous competitive binding of 125I-labelled antibody on washed cynomolgus monkey platelets, n=3, mean±S.E.
Description: as §1, §2

[3] = target: T3, mouse GPVI extracellular region-human Fc fusion protein (mGPVI-hFc) (mouse); assay: competition ELISA, soluble GPVI-Fc against immobilised hGPVI-hFc
T3 construct: whole fusion entry; also called GPVI-MMM-hFc; mouse GPVI-Fc
Description: To the plate, wherein hGPVI-hFc has been immobilized at 4 μg/mL, a mixture of peroxidase-labeled F1232-37-2 or cF1232-37-2 by the method described in EXAMPLE 14, and hGPVI-hFc, mGPVI-hFc, hGPVI-mL3-hFc, wherein these were prepared in EXAMPLE 7, or hGPVI-K59E-hFc (a fusion protein consisting of one amino acid mutated human GPVI extracellular region, wherein lysine at 59 of human GPVI is substituted for glutamic acid, and human Fc), which has been prepared by the same method as that of EXAMPLE 1 and diluted with 0.1% BSA/PBS was added, and the plate was incubated at 37° C. for one hour. After incubation, the mixture was developed using TMB solution, and absorbance at 450 nm was measured.

[4] = target: T4, human GPVI extracellular region-human Fc fusion protein (hGPVI-hFc) (human); assay: ELISA on immobilised hGPVI-hFc; ++ = absorbance 1.0 to 2.0
T4 construct: Expressed in COS-1, purified on Protein A; also called GPVI-HHH-hFc; hGPVIHHH-hFc
Description: The hGPVI-hFc prepared by EXAMPLE 1B was diluted with D-PBS to 2 μg/mL and added to immunoplate (Maxisorp, NUNC) at 50 μL/well. After incubation at 37° C. for one hour, the well was washed five times with ion-exchanged water, and D-PBS (pH7.4) containing 2% STABILGUARD® (chemical solutions for stabilizing biological molecules) (Surmodics) was added to each well in 100 μL for blocking. Next, culture supernatant was added to each well and incubated at 37° C. for one hour. After incubation, the well was washed three times with the saline containing 0.05% TWEEN®20 (Polyoxyethylene (20) sorbitan monolaurate). […] After incubation at 37° C. for one hour, washing in a similar manner was performed five times and TMB solution (BIOFX® (reagents for scientific or medical research) was added to each well. After ten minutes at room temperature, the reaction was terminated with 0.5 M sulfuric acid solution. Subsequently, absorbance at 450 nm was measured with the plate spectrophotometer (Multiscan JX, Dainippon Pharmaceutical). As a result, the cell whose culture supernatant reacted to hGPVI-hFc was selected and a cloning with limiting dilution method (“The Introduction to Monoclonal Antibody Experimental Procedure” written by Tamie Andoh and Takeshi Chiba (Kodansha, p97)) was performed. […]

[5] = target: T4, human GPVI extracellular region-human …; assay: SPR BIACORE 3000 as in Example 5 (the reference itself)

T3 sequence (chain, as listed by the source limits assumed): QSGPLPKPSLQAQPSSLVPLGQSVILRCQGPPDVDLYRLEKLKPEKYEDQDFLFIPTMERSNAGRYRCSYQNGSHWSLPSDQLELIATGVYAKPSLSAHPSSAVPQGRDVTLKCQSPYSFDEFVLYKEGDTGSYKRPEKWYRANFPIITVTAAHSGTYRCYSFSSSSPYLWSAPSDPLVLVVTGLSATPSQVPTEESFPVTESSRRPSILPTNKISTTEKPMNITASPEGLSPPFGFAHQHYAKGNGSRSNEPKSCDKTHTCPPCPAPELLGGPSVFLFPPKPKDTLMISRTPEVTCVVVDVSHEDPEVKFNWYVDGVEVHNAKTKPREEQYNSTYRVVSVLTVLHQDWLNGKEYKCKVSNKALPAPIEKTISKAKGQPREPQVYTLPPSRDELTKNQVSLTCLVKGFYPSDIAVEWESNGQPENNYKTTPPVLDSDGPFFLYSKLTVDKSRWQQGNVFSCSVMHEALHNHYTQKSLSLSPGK

Binder | Kd [1] | Kd [2] | binding result [3] | absorbance [4] | KD (Relative value) [5]
B1 | 17 nM | 20 nM | no binding | – | –
B2 | – | – | no binding | 1 to 2 od | 1 relative to F1232-37-2 = 1
